Test results from article PMC2787996 (Biochemical and biophysical research communications, 2009).

Target: T1, dDis3-FLAG (Drosophila melanogaster, UniProt Q9VC93 1-982)
T1 sequence (looked up): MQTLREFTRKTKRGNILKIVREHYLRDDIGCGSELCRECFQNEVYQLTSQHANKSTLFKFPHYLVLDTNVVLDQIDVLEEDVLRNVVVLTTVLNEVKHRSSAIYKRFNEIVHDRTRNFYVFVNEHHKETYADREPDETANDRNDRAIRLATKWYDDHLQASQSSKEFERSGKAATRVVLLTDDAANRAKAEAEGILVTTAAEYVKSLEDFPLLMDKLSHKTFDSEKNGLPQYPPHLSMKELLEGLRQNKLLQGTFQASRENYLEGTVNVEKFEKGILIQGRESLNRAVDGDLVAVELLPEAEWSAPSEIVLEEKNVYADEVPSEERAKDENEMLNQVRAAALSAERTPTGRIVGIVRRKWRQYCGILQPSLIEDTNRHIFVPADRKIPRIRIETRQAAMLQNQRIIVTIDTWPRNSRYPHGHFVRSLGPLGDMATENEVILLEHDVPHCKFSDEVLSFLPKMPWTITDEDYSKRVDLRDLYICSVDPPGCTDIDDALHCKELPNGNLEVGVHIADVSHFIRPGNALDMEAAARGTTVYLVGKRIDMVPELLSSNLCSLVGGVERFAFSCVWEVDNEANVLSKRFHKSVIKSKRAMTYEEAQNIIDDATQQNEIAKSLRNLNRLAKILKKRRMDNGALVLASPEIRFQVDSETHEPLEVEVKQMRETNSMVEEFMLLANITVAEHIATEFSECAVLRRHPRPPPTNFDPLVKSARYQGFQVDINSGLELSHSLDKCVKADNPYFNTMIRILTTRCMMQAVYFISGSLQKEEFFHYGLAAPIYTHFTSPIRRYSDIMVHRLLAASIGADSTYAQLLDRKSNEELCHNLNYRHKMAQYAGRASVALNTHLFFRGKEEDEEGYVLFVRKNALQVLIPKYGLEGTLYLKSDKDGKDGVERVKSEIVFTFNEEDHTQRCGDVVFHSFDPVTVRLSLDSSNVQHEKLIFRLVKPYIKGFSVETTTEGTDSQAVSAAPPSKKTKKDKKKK
Assay: co-IP

fold reduction in recovery (0.2 M Mg2+ against 0.01 M Mg2+): ~2 fold
B1: dRrp6 (natural protein, UniProt Q9VFF3 1-900, looked up)
chain: MPRTPKRVHQEAKEESAQADQPPKKSASEDVEAFTNKGFKNAIAATKAANAFPQGTARALYLSYPGYARVMEDLTQRVVALIGNVLHSKDIKGDIKKRQPEEQFEMVQECNDVLFERITTNLDIKGGLRRNTQQVVEAQVDVMSSSTSIEPAVASPQTQGTPKAGSWNRTTGTPQRSMVSARLFTAKNIVRPQTQFREPVDNSAQNPFVPRLKEKPNSLKPLALLPEYDDAGNVQSYLHPYEFELLKFQPPEEQFQKQKPVLPALMAETELMVVDTVEKLKQALEELRQAPQIAIDVEHHSYRTFMGITCLVQMSTRSKDYIFDTLILRDDMHILNLVLTDPKKLKILHGADLDIEWLQRDLSLYIVNMFDTHRAAKALNMARLSLAYLLKHYLDLDVDKSLQLADWRMRPLPQQLVDYARQDTHFLIYVYGRMTNDLLQQHAEPGLLGSVYQQSTDVCKKRYNKPHIGPESHLDLVRKTKRSFDNRQLYALRGIFEWRDATARSEDESYGYVLPNHMMLQIAESLPREMQGILACCNPIPPLVRQQLHTLHQIVLKARDQPLVKPILEAHSSTQAALPPSTKDFSSKLYCPHDFSQLEEIRDDLPTLLKRNSTTGKLEVPNKEEVAKVDPTLAAPAMALFEKQSKPTQEEEQRWAHLRKESQTMRMPYKRYLAILPLMVQLKADQLARERSELQKRQLCPAAPTVEQNIKLEAHAIGKEDDDMYSVPLKEQLKRKHPQANVKTDPEQQPTASKRPRKDENSQTKPPVKIEPVEKVQQALGESDDEVVEVPIERQATEPPKPSPAQNNRKQKKNQFQRGFKAKNRGNHPQSSSQQVPQHKGTGNFDYKNVDFRQFKGGAQRARGTEIKQQIRGKNRPNNRNNKQFNKLFTFSNVRKEGKK
